# B1: 2B5-8.0: recombinant anti-PGE2 antibody from solved 2B5 sequence; VH SEQ ID NO 42, VL SEQ ID NO 43 (antibody, V domains shown)
# VH: QVQLQQSGPELVRPGSSVKISCKASGYTFTKYWLGWVKQRPGHGLEWIGDIYPGYDYTHYNEKFKDKATLTVDTSSSTAYMQLSSLTSEDSAIYYCARSDGSSTYWGQGTLVTVSA
# VL: DVLMTQTPLSLPVSLGDQASISCTSSQNIVHSNGNTYLEWYLQRPGQSPKLLIYKVSNRFSGVPDRFSGSGSGTVFTLKISRVEAEDLGVYYCFQVSHVPYTFGGGTKLEIKR
# Experiment: ^3H-PGE2 competition ELISA (prostaglandin selectivity)
# Type: binding
# Procedure: Alternatively, prostaglandin selectivity was determined using a ^3H-PGE2 competition ELISA. Plates were coated with 50 μL/well of 5 μg/ml of goat anti-human IgG (Fc) (Thermo Scientific # 31170, Hudson, N.H.) or goat anti-mouse IgG (Fc) (Thermo Scientific # 31125, Hudson, N.H.) in PBS and incubated overnight at 4° C. The following day plates were flicked and blotted dry. Plates were blocked with 200 μL/well of Superblock (Thermo Scientific # 37515, Hudson, N.H.), 1 hour at room temperature. Plates were flicked and blotted dry. Monoclonal antibodies were diluted to 0.04 μg/ml in PBST (Abbott Bioresearch Center, Worcester, Mass.)/10% Superblock and 50 μL of each was added to each well (2 ng/well) of the pre-blocked ELISA plate and incubated for 1 hour at room temperature. Wells were washed 3 times with PBS/0.1% Tween-20. ^3H-PGE2 (Perkin Elmer # NET-428, Waltham, Mass.) was diluted in PBST/10% Superblock to 6 nM (2× stock). Each prostaglandin (Cayman Chemicals, Ann Arbor, Mich.) was prepared in PBST+10% Superblock at various concentrations ranging from 2000 μM (2× stock) to 0.00004 μM (2×). Equal volumes of the ^3H-PGE2 solution and of each prostaglandin dilution were mixed. Fifty microliters of this mixture was then added to each well of the plate and incubated for 1 hour at room temperature. Wells were washed manually 6 times with PBST/10% Superblock and 50 μL of scintillation fluid (Perkin Elmer # 6013621, Waltham, Mass.) added to each well. Plates were read using a TopCount reader (Perkin Elmer, Waltham, Mass.) with a 5 minute count delay. IC50 number was determined using GraphPad Prism 5 (GraphPad Software, La Jolla, Calif.). The cross reactivity index was then calculated by IC50 of PGE2/IC50 of other prostaglandin(s)
molecule,measurement,setting,value
B1,"PG Selectivity in ^3H-PGE2 competition ELISA (CRI %) 2,3-dinor-6-keto-PGF1α","2,3-dinor-6-keto-PGF1α",0.019%
same,PG Selectivity in ^3H-PGE2 competition ELISA (CRI %) 5(S)-HETE,5(S)-HETE,<0.01%
same,PG Selectivity in ^3H-PGE2 competition ELISA (CRI %) 6-keto PGF1α,6-keto PGF1α,0.64%
same,PG Selectivity in ^3H-PGE2 competition ELISA (CRI %) 8-iso PGF2α,8-iso PGF2α,0.092%
same,"PG Selectivity in ^3H-PGE2 competition ELISA (CRI %) 13,14-dihydroxyl-15-keto PGE2","13,14-dihydroxyl-15-keto PGE2",0.012%
same,PG Selectivity in ^3H-PGE2 competition ELISA (CRI %) 15-keto PGE2,15-keto PGE2,0.013%
same,PG Selectivity in ^3H-PGE2 competition ELISA (CRI %) 15R-Pinane TXA2,15R-Pinane TXA2,0.00043%
same,PG Selectivity in ^3H-PGE2 competition ELISA (CRI %) 19R-hydroxy PGE2,19R-hydroxy PGE2,0.09%
same,PG Selectivity in ^3H-PGE2 competition ELISA (CRI %) Arachidonic acid,Arachidonic acid,<0.01%
same,PG Selectivity in ^3H-PGE2 competition ELISA (CRI %) Carbaprostacyclin,Carbaprostacyclin,0.18%
same,PG Selectivity in ^3H-PGE2 competition ELISA (CRI %) Carbocyclic TXA2,Carbocyclic TXA2,0.0005%
same,PG Selectivity in ^3H-PGE2 competition ELISA (CRI %) Iloprost,Iloprost,0.01%
same,PG Selectivity in ^3H-PGE2 competition ELISA (CRI %) LTE4,LTE4,0.012%
same,PG Selectivity in ^3H-PGE2 competition ELISA (CRI %) PGA2,PGA2,0.04%
same,PG Selectivity in ^3H-PGE2 competition ELISA (CRI %) PGB2,PGB2,0.00038%
same,PG Selectivity in ^3H-PGE2 competition ELISA (CRI %) PGD2,PGD2,<1 × 10^−4%
same,PG Selectivity in ^3H-PGE2 competition ELISA (CRI %) PGE1,PGE1,3.6%
same,PG Selectivity in ^3H-PGE2 competition ELISA (CRI %) PGE2,PGE2,100%
same,PG Selectivity in ^3H-PGE2 competition ELISA (CRI %) PGF2α,PGF2α,0.05%
same,PG Selectivity in ^3H-PGE2 competition ELISA (CRI %) PGI2,PGI2,0.16%
same,PG Selectivity in ^3H-PGE2 competition ELISA (CRI %) Pinane TXA2,Pinane TXA2,0.00033%
same,PG Selectivity in ^3H-PGE2 competition ELISA (CRI %) TXB2,TXB2,<0.01%
